These results are taken from patent US20080118512A1 (DELENEX THERAPEUTICS, published 2008).

Substitutions are numbered along the chain they refer to.

The target of this assay is T1, human ALK epitope peptide (amino acids 391-406 of the ALK protein) (human).
T1 construct: In the yeast two-hybrid screen it was a C-terminal fusion to LexA; also called Alk LBD peptide; Alk LBD
T1 peptide: GRIGRPDNPFRVALEY
The assay can be described thus: ELISA; the coated antigen is not named on the sheet or in the legend, taken as the ALK epitope peptide. On the technique in general: ELISA stands for enzyme-linked immunosorbent assay.

B1: 2.11 (scFv)
scFv (VL-linker-VH): QSVLTQPPSVSAAPGQKVTISCSGSTSNIGDNYVSWYQQLPGTAPQLLIYDNTKRPSGIPDRFSGSKSGTSATLGITGLQTGDEADYYCATWDNDKWGVVFGGGTKLEVLGGGGGSGGGGSGGGGSSGGGSEVQLVESGGGLVQPGGSLRLSCAASGFTFSSYAMSWVRQAPGKGLEWVSAIRTDSKEQYYADSVKGRFTISRDNSKNTLYLQMNSLRAEDTAVYYCARDAWLDVLSDGFDYWGQGTLVTVSS
notes: One of the seven improved scFvs (group m4); The full chain is assembled from ESBA521 with its VH CDR2 exchanged; also called scFv 2.11
For the molecule B1, the binding result is “binds”.

B2: 4.12 (scFv)
scFv (VL-linker-VH): B1 scFv (VL-linker-VH) with R183N, D185R, S186G, K187Q, E188N, Q189E
notes: One of the seven improved scFvs (group m4); The full chain is assembled from ESBA521 with its VH CDR2 exchanged
On to B2, for which the binding result is given as “binds”.

B3: 100.2 (scFv)
scFv (VL-linker-VH): B1 scFv (VL-linker-VH) with R183K, S186G, K187N, E188H, Q189K
notes: as for B2
As to B3, the binding result is “binds”.

B4: 265.1 (scFv)
scFv (VL-linker-VH): B1 scFv (VL-linker-VH) with R183N, T184M, D185K, S186G, K187N, E188D, Q189R
notes: as for B2
For B4, the binding result was “binds”.

B5: 33.11 (scFv)
scFv (VL-linker-VH): B1 scFv (VL-linker-VH) with R183N, D185G, S186G, K187G, E188S, Q189T
notes: One of the seven improved scFvs (group m4); The full chain is assembled from ESBA521 with its VH CDR2 exchanged; also called scFv 33.11
Turning to B5, the binding result is given as “binds”.

B6: 43.2 (scFv)
scFv (VL-linker-VH): QSVLTQPPSVSAAPGQKVTISCSGSTSNIGDNYVSWYQQLPGTAPQLLIYDNTKRPSGIPDRFSGSKSGTSATLGITGLQTGDEADYYCATWDNDKWGVVFGGGTKLEVLGGGGGSGGGGSGGGGSSGGGSEVQLVESGGGLVQPGGSLRLSCAASGFTFSSYAMSWVRQAPGKGLEWVSAIRTNSKEYYADSVKGRFTISRDNSKNTLYLQMNSLRAEDTAVYYCARDAWLDVLSDGFDYWGQGTLVTVSS
notes: as for B2
Consider B6, for which the binding result is listed as “binds”.
